Experiments:
[1] = biological target: Venezuelan equine encephalitis virus (VEEV) virus-like particles (Venezuelan equine encephalitis virus, strain TC-83) (UniProt P09592); assay: cryo-EM structure
[2] = biological target: Venezuelan equine encephalitis virus (VEEV) virus-like particles (Venezuelan equine encephalitis virus, strain TC-83) (UniProt P09592); assay: SPR; Biacore T200; […]; 30 µl/min, 25 °C, HBS-P plus 1 mM CaCl2; global 1:1 fit; […]

Sequence of LDLRAD3(D1), cleaved monomeric ectodomain of mouse low-density lipoprotein receptor class A domain-c (A2AR95 18-70): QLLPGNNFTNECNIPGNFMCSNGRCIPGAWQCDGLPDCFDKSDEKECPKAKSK
Sequence of LDLRAD3(D1+D2), cleaved monomeric ectodomain of mouse LDLRAD3, domains 1 and 2 (A2AR95 18-112): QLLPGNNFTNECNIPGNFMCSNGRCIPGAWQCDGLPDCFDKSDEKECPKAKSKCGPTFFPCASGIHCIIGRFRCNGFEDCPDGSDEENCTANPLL

| Substance | stoichiometry N (molecules of LDLRAD3(D1) per VLP) [1] | Kd [2] [nM] |
| --- | --- | --- |
| LDLRAD3(D1), cleaved monomeric ectodomain of mouse low-density lipoprotein receptor class A domain-c (from UniProt A2AR95 18-70) (domain or fragment) | 240 |  |
| LDLRAD3(D1+D2), cleaved monomeric ectodomain of mouse LDLRAD3, domains 1 and 2 (from UniProt A2AR95 18-112) (domain or fragment) |  | 50 |
